Test results as given in patent publication US20050203026A1 (DANISCO US, published 2005).
No end group written: not given here.

How the values were obtained:
human VEGF165 [1] = target: T1, human VEGF165 (human, UniProt P15692-4 27-191); assay: surface plasmon resonance (BIAcore), hVEGF165 coupled to a CM5 chip, BBI-VEGF injected
T1 construct: Bought recombinant protein; Coated on plates (ELISA), amine-coupled to a CM5 chip (SPR) or added to HUVE cells at 10 ng/mL; also called hVEGF165; vascular endothelial growth factor
T1 sequence (P15692 other isoform, or with tags, fused parts or gaps limits assumed): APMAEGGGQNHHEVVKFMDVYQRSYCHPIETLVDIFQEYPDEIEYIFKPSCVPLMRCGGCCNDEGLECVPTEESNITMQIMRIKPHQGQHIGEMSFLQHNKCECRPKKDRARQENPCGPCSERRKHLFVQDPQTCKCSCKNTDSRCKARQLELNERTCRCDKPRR

BSA = BSA (UniProt P02769 25-607); assay: phage ELISA, detected with anti-M13-HRP and ABTS, A405 after 30 min, n=3
BSA, sequence (P02769 25-607 limits assumed): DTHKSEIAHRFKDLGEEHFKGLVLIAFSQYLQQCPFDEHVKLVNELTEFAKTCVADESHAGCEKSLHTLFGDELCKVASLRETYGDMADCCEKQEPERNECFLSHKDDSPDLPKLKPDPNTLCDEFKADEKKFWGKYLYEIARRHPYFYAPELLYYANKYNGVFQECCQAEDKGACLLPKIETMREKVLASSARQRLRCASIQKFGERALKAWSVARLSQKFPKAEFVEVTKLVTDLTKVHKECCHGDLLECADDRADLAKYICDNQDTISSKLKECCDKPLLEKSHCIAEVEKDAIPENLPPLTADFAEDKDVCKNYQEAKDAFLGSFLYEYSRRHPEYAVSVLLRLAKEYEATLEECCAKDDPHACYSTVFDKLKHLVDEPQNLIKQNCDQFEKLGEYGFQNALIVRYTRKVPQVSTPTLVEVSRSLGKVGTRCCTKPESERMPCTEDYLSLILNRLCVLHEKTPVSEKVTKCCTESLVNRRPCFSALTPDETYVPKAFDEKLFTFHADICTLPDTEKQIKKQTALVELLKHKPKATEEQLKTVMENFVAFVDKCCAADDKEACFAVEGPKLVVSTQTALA

human VEGF165 [2] = target: T1, human VEGF165; assay: plate binding assay: hVEGF165-coated wells, bound beta-lactamase activity measured with nitrocefin (mOD/min)
human VEGF165 [3] = target: T1, human VEGF165; assay: SPR (BIAcore 3000), VEGF165 coupled to CM5 chip, peptide injected; two state reaction model with conformation change
human VEGF165 [4] = target: T1, human VEGF165; assay: SPR (BIAcore 3000), 6000 RU VEGF on CM5 chip, TNF reference lane, peptide injected; two state reaction model with conformation change

B1: BBI-VEGF1 (designed binder)
chain: DDESSKPCCDQCACYNLYGWTCRCSDMRLNSCHSACKSCICALSYPAQCFCVDITDFCYEPCKPSEDDKEN
notes: also called anti-VEGF BBI
Human VEGF165 [1]
  binding result: binds

## ACYNLYGWTCGGG [SEQ ID NO 1]
BSA
  binding result: no binding

## ACTLWPTFWCGGG [SEQ ID NO 2]
BSA
  binding result: no binding

## ACNLWPHFWCGGG [SEQ ID NO 3]
BSA
  binding result: no binding

## ACSLWPAFWCGGG [SEQ ID NO 4]
BSA
  binding result: no binding

## ACTLWPSYWCGGG [SEQ ID NO 7]
BSA
  binding result: no binding

B2: BLA (enzyme)
chain: TPVSEKQLAEVVANTITPLMKAQSVPGMAVAVIYQGKPHYYTFGKADIAANKPVTPQTLFELGSISKTFTGVLGGDAIARGEISLDDAVTRYWPQLTGKQWQGIRMLDLATYTAGGLPLQVPDEVTDNASLLRFYQNWQPQWKPGTTRLYANASIGLFGALAVKPSGMPYEQAMTTRVLKPLKLDHTWINVPKAEEAHYAWGYRDGKAVRVSPGMLDAQAYGVKTNVQDMANWVMANMAPENVADASLKQGIALAQSRYWRIGSMYQGLGWEMLNWPVEANTVVEGSDSKVALAPLPVAEVNPPAPPVKASWVHKTGSTGGFGSYVAFIPEKQIGIVMLANTSYPNPARVEAAYHILEALQHHHHHH
notes: also called pCB04; pCB04 (WT)
Human VEGF165 [2]
  binding result: no binding (tested: about 40 µM)

## ACYNLYGWTCGGG (cysteine pairing not given here; also: biotinylated, site not given here, Synthetic peptide (FMOC, SynPep)) [biotinylated peptide CK37281]
Human VEGF165 [3]
  Kd: 1.92 µM
  koff: 0.0122 s⁻¹
  kon: 2840 M⁻¹ s⁻¹

B3: CK37283 (peptide)
peptide: ACNLWPHFWCGGG
modifications: Probably cyclised by a Cys2-Cys10 disulfide, since it comes from the C7C constrained library. The patent does not say this for the synthetic peptide.
notes: Synthetic peptide from the phage panning
Human VEGF165 [4]
  Kd: 4.9 µM
  koff: 0.318 s⁻¹
  kon: 12400 M⁻¹ s⁻¹
